# Source: paper PMC7458484 (ACS Nano, 2020)
# B1: full-length hepatitis B virus core protein Cp185 (natural protein)
# chain: MDIDPYKEFGATVELLSFLPSDFFPSVRDLLDTASALYREALESPEHCSPHHTALRQAILCWGELMTLATWVGNNLEDPASRDLVVNYVNTNMGLKIRQLLWFHISCLTFGRETVLEYLVSFGVWIRTPPAYRPPNAPILSTLPETTVVRRRDRGRSPRRRTPSPRRRRSQSPRRRRSQSRESQC
# Molecular target: the molecule itself
# Assay: SAXS; steady state, flow cell; 1.14 mg/mL disassembled Cp185 in disassembly buffer (1.5 M GuHCl, 0.5 M LiCl, 50 mM HEPES pH 7.5, 2 mM DTT); monomer to dimer
protein,measurement,value
B1,stoichiometry N,2
